Drawing on the supplement of paper PMC10567573, this text covers protein stability index for four proteins.

The data set in a line: protein stability index of a GFP-peptide fusion (GPS, HEK-293T) (PSI 1-6); higher = more stable. Conditions: c terminus: native.
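Note: lentivirally expressed fusion library, cells FACS-sorted into six equal-sized GFP/DsRed ratio bins, PSI computed from sequencing read fractions per bin weighted by bin number.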

For the protein DGWIRVSSDNVADLHEKYSGSTPL [PSMB5 addL], for the setting “parent: NP_002788.1”, the protein stability index was found to be 3.47.

Take EQRNSRWNTVLRAVKAKTHHLEPL [TRPA1 addL]: the protein stability index (parent: NP_015628.1) worked out at 4.2.

LPALFTDLYSQEITAEEAREALPL [SNF8 addL]: under “parent: NP_009172.2”, the protein stability index was found to be 3.71.

As to CQPISFSGFGAEDDDLGGLGLGPL [POLD2 addL], the protein stability index (parent: NP_006221.1) was found to be 2.66.
